{"source": "patent US20240092847A1", "about": "“FUNCTIONAL NUCLEIC ACID MOLECULE AND METHOD” (The University Court of The University of Edinburgh, priority 2021, published 2024)", "type_in_all_cases": "cell-based, human", "key": {"GSC7 cells [1]": {"test_system": "GSC7 cells", "test": "Nano-Glo Dual-Luciferase Reporter (Nanoglo DLR) enhancer assay in GSC7", "excerpt": "We chose an arrayed library format, with 160 bp enhancer fragments individually cloned into separate plasmids and arrayed in 96 well plates. These 160 bp were synthesized as a single pool of oligos, then randomly cloned into the plasmid and isolated. 20 bp×2 were needed for PCR amplification of the pool and so a library of 200 bp fragments was synthesized (Twist Biosciences). To meet our oligo synthesis strategy, ChIP-seq peaks expressed by GSCs were merged into a single oligo. This oligonucleotide pool was PCR-amplified (using limited cycles to reduce bias and ‘jackpot’ products meaning products which are easier to amplify will overtake the oligonucleotide pool) and cloned into the expression vector by an efficient Golden Gate reaction. 4579 individual plasmids were then randomly picked, isolated and plated as an arrayed plasmid DNA library on 96 well plates (×48). The bacterial colony picking and production of plasmid minipreps were supported by the Edinburgh Genome Foundry (S. Rosser). This library was then screened using the optimised Nanoglo DLR assay (Nano-Glo Dual-Luciferase Reporter Assay, Promega) in 384 well format. Each plate was transiently transfected together with PGK-FFLuc in a 1:10 ratio into GSC7 cells. 2 days later a Nanoglo DLR assay was performed and assayed on a plate reader.\nCells were seeded in 384 well plates using a multidrop and transfected the following day using the CyBio Felix. Two days later the experiment was terminated with a Nanoglo DLR assay and all hits with a fold change to mCMV greater than 10 were Sanger sequenced and mapped back to the genome.\n(§1) Cells were seeded at the required density. The following day the transfection was carried out. For this the Plus reagent and Lipofectamine LTX (Life Technologies, 15338030) were each diluted in half the volume of Opti-MEM I Reduced-Serum Medium (further referred to as Optimem) (Life Technologies, 31985062). Following this step, the Plus reagent/Optimem premix was added to all DNA samples followed by the Lipofectamine LTX/Optimem premix. The transfection mix was incubated for 5 min at room temperature and then carefully dropped on the cells. Generally, no media change was carried out. Cells were analysed two days following transfection.\nThis assay consists of two steps. […] First, the Firefly Luciferase activity is measured which allows to normalise to transfection efficiency. In a second step, the activity of Nanoluc is determined which is the readout of the plasmid of interest. […] 20 μl cell lysate in 96 well format or 25 μl cell lysate in 384 well format was then transferred into the corresponding opaque white plate and luminescence was measured at for 0.1 s per well using the Ensight Multimode Plate Reader. […] Nanoluc activity was measured for 0.1 s per well, again using Ensight Multimode Plate Reader. […]"}, "GSC7 cells [2]": {"test_system": "GSC7 cells", "test": "Flow cytometry of mNGreen reporter in GSC7", "description": "as §1\nFor flow cytometry, cells were detached, pelleted and resuspended in an appropriate volume of flow cytometry buffer (1% BSA in PBS, v/v). Cells were stained with Draq7 (Abcam, ab109202, f.c. 0.1 μM) as a live/dead stain and analysed using the BD LSRFortessa cell analyser (4 lasers, BD Bioscience). Analysis of flow cytometry data was carried out in the FlowJo Analysis software (FlowJo, version 10.6.2)."}, "[3]": {"test_system": "patient-derived glioblastoma cell lines", "test": "SSE-7 mCherry expression across patient-derived glioblastoma cell lines", "excerpt": "The experiment described in Example 8 was repeated in five patient-derived glioblastoma cell lines (E17, E21, E28, E31, E34)."}}}
{"molecule": "SSE-5: synthetic super-enhancer ID2706_ID3547_ID3548_ID3146, SEQ ID NO: 68 (nucleic acid) DNA: CCAATGCCAAAGCAGTTTACATTTTACAGATGCCATGGCAACCGTCAGGAAGTTACCCTGTATGGTCTAAGAGGGGGAGGAACCCTCAGTTCCGGGAATTGCCCGCCCCTTTCCCGGAAACTCATGAATAATCCACCCCGTTCCCCCTTAACAAAAGCCACCTCCTCCCTCCTGAAAGGCACCATTGGTCACCAAAACAAGTCCCCTTTGTCCTCCACCGCAGCTGGAGCCTGGGCCTTCCATCTCCTGGGGGCCAATAAAACCCCAGATCAGCCAATCCTCCCTCCCTGGCTCTGTCATCCAAACACTCCCCTGCAACAGATGTACACACAGAGCCCATTGTTTTCTCTAGAAATGTAAACTGCACGTCACAGTTACTCCATACACACCACAAACAGACTCCCTTTGTTCTCAGGATATGTGTTGACACAAGAATATGTCATCCTCTCAGCTCCAGACTGAAAGAGATGGGTGTGTGGGAGTGGGGGAAGCTGAGCTCCAGGCAGACAGCACAGAGCCGCCTTGTCCAACCCAGCCAGGTGCCATGGCAACCAACAAAGGCCCCATTGTCCCGTGTCTGCTGGGCCTTCCTGAGGCTCTGGGGTCAGAGTCCCGGTT", "values": [{"measurement": "activity compared with full CMV by Nanoglo DLR assay", "setting": "GSC7 cells [1]", "value": "higher than CMV"}, {"measurement": "activity compared with full CMV by flow cytometry", "setting": "GSC7 cells [2]", "value": "higher than CMV"}]}
{"molecule": "SSE-3: synthetic super-enhancer ID0876_ID2339_ID1737_ID0663, SEQ ID NO: 66 (nucleic acid) DNA: GAGCAGGCAGTCATTTGGTTCCCTTCTCTGAATGCATTGGCTCTGATCCACGGCGCCTCAGGAAGTGAAAGGGAGCAGGCAGTGAGGCCAAGCCATGAATGTTGGGCCCTTTTCTTAGAAAACAAAGGGTTCACTTTAGGCTAGGAGGAAACATCCGGGGGTCGGCGGAACTGAGTCTCCTTTGTGGAGCCCCTCATTTGCATGATAAACCCCGGGGACAAAGTGTGTTCTTGTTACTTGGACTGTTTCTTGGAAACTGCTGCTACCTGGAGCGAGTGAACACAGGGCAAGTATTCTCGCCCACAGCAACGTGTCATTGACAACGTTTTTGGCAGATGCAGCTCTTTCTGAACAGTAAGTCATTGTTGAGTGACATGAATAGGACGAGAGCTACAGAAAATGAAGGTTTCAAAAGATTGTCTAAAACAAAAGTCCTTTCAGTCCCGTATTCAGAGTTATAAATTCCGATTAGCCAAGGAAGCTCTGAGTCTAAATACCAGCAAAGCTCAGCCCCTGCAAGTGGGGACGAATTATTTGAAAGGTCATCCTAGAGACACTGAACAAAGGGCCTCTAGCAGCT", "values": [{"measurement": "activity compared with full CMV by Nanoglo DLR assay", "setting": "GSC7 cells [1]", "value": "higher than CMV"}, {"measurement": "activity compared with full CMV by flow cytometry", "setting": "GSC7 cells [2]", "value": "higher than CMV"}]}
{"molecule": "SSE-7: synthetic super-enhancer ID4310_ID4428_ID0785_ID3836, SEQ ID NO: 70 (nucleic acid) DNA: TTGTCCTGCCTTTGAGAACACTGGAAGGGCACTGAAGGCTGACCAGCATGCACCTCACCCCACCTCCTCTCTGTCTCATCCTCAGCCATCTAAGCGGGAGACTCATCAGGCTTAAATTCTCATTCTTATCCAAGATTCTTCTGCTTCAAATGAGTCTAAATGGAGATCCTCCCATAAAGGGAGTTCTGTTTGGGCTTCCCTTGGAAGTCCATTGAAAGCGTTTCACATTTCAATGCTTCTTTACATTCTCCTCTAGAATGAATCTGGAAGGGCCATTTCATTCCAGCCCTATCAGATTTACTACTTCCTCCTGTAAGAATGAACTGGGCCCAGCTGGGCATTTGCATCAAAGTGCCTCACCAGAGTTCCCAGCTGCTCTGGCAGAGTGCCCAGGCTTGCCCCAGAGCCCAAACAGAATGCTCTTTGAGATGCCTCTGGTTTTCATACCCTTCCAGGGGAGCAGTTTCCTGGCTGTGTCGTCAGATACTGTGGTTTACGCTGTTCCGGAGTCTGGAGGTCTGTGTGCCTTTGATCTCTTTCCCAACTAATTTGCACAGCTGCTGTGGAGGCCCTCATGAATGACCTCTTTCTTTCCTTTCT", "values": [{"measurement": "activity compared with full CMV by flow cytometry", "setting": "GSC7 cells [2]", "value": "higher than CMV"}, {"measurement": "mCherry expression", "setting": "[3]; E21, E31 and E34", "value": "lower frequency of expression"}, {"measurement": "mCherry expression", "setting": "[3]; GSC7, E17 and E28", "value": "highly expressed and comparable to full-length CMV"}]}
{"molecule": "SSE-1: synthetic super-enhancer ID1101_ID2904_ID0109_ID4328, SEQ ID NO: 64 (nucleic acid) DNA: GTGAGTGTGACTCACATGCTGGCATCAGAGCCCCTCTTAGAGCTTAGAACACTGGGCCTCTGTCAGGCAAAGAAAAGGAGTCCCTATGAATAGCCATCTCCACAAATAGCAGTTACTGTCACTTCTTAAAAGACACAAGCATGGCTGGAGACCGGCACTGTGCATGTTCTTGGGAAAAAGTGGTATTTAATGAAGGCGCTTTGAGCTGAATCAAAGAGCCTCATTCTTCTGAAAGTCCTTCTTCCTAGTCTCTGCATCCGGCTCCTATCAAAGGAAATCCACAGCTTTGGCTTTTCGTTGCTGTTGTCATGGAAATCGTTGAAATTGGATCCTGAGGAGAATGTCACCACCTCTTTGACAATAACTAGCTTTCAGAGCTGAACACAGTGAATCTGGATACTGTGTATATGTTTAAATGAGTTAGGAAATGACATCACATTATTTATTTCTTCTTTTGTGACTTAGTAAATTGACTTGGCCTACAATCTATTCTCCATAGTCATCAGAGTTTCTTTAAAGGCACGGTTCAGACAATGGCACCCTCTGTTCCAAACCCTCCAGGGCTTCCTATTTCACTTAGCATAAAAACCAAAGTCCTCACAATGACCGACAAGTCTTCACACAATGTGCCCCTTCATTG", "values": [{"measurement": "activity compared with full CMV by Nanoglo DLR assay", "setting": "GSC7 cells [1]", "value": "higher than CMV"}, {"measurement": "activity compared with full CMV by flow cytometry", "setting": "GSC7 cells [2]", "value": "higher than CMV"}]}
{"molecule": "SSE-2: synthetic super-enhancer ID0109_ID4328_ID0876_ID2339, SEQ ID NO: 65 (nucleic acid) DNA: GAAATTGGATCCTGAGGAGAATGTCACCACCTCTTTGACAATAACTAGCTTTCAGAGCTGAACACAGTGAATCTGGATACTGTGTATATGTTTAAATGAGTTAGGAAATGACATCACATTATTTATTTCTTCTTTTGTGACTTAGTAAATTGACTTGGCCTACAATCTATTCTCCATAGTCATCAGAGTTTCTTTAAAGGCACGGTTCAGACAATGGCACCCTCTGTTCCAAACCCTCCAGGGCTTCCTATTTCACTTAGCATAAAAACCAAAGTCCTCACAATGACCGACAAGTCTTCACACAATGTGCCCCTTCATTGGAGCAGGCAGTCATTTGGTTCCCTTCTCTGAATGCATTGGCTCTGATCCACGGCGCCTCAGGAAGTGAAAGGGAGCAGGCAGTGAGGCCAAGCCATGAATGTTGGGCCCTTTTCTTAGAAAACAAAGGGTTCACTTTAGGCTAGGAGGAAACATCCGGGGGTCGGCGGAACTGAGTCTCCTTTGTGGAGCCCCTCATTTGCATGATAAACCCCGGGGACAAAGTGTGTTCTTGTTACTTGGACTGTTTCTTGGAAACTGCTGCTACCTGGAGCGAGTGAACACAGGGCAAGTATTCTCGCCCACAGCAACGTGTCATTGA", "values": [{"measurement": "activity compared with full CMV by Nanoglo DLR assay", "setting": "GSC7 cells [1]", "value": "higher than CMV"}, {"measurement": "activity compared with full CMV by flow cytometry", "setting": "GSC7 cells [2]", "value": "higher than CMV"}]}
